Data as given in the DeepSol protein solubility set.

assay: soluble on expression in E. coli; label from the status in PepcDB or PDB records

Sequence	soluble on expression in E. coli
MEPDLKNVKNAGTGESNKDEIKNTNASRRSGRKVKTIIEEDPNINKKMELPPTLMPKFPSQKIIKQQKSPDKNEPPPARPVEQTEENEENNADEKEKHEIFWQEGVIEECQGREDEGEVPKEQEEHAHVSPDPTSLNDKKSKFEKPNLEPGKPEKPEKLDKPLAKPLPPPSAAPPPVAPLSAPVPSTGAPPSAVPPADKKMSKQSTRDKKSGRSTDRNIHKKKDVAALDENKKSPEDKKKDAGTKKGSTEDASTDNLNNGKVQSRRKSKRQKKSIFQQPVQRTPGSHPSAYLQPTRARTERSLKLPPAEPKSVDERPRKPSTQILQPQQPNRGGQVQKQPSKVVLQPGAPGATPVASTPNQREQAQQQQQQQQKGPMGLFKKIYRKMNFRAASDCTVEPTKEMLAKSYVRPEHNSNDPIDFCPDLPKKLFDEEAWKLRMTNKGANRNEVFLNNRPFWLTRDGTEQIPKVRIQLHRPLKQMHSGNPASIQLKLQRTDPFLDPKEDTLERLKIVDKAIGVDPLDLTKDRELKRVCANTFHGTLMFEVDKRQYDTQQKKAEAEALKLDPKRKNDGKEKDQKSSFEDPKKVAFNVSDKCTLHVYFRKHRPLTNQGKSERFTEKKYTMGERKIMKKGEKPAVPQLVPPTSSSTTSASSSSCRETKKL	not soluble
KKKPLIGMVHLKPLPGSYHYNDNFDDIVDFAIKEAKKLEEAGFDAVMIENFGDAPFKKEADKITIASMAVIAKAIKEEVSLPLGINILRNDAIGAYSIAYVVKADFIRVNVLSGVAFTDQGIIEGKAYELAKLKKLLPSKIKVFADVHVKHAYHFIDFESSLLDTVERGLADAVIISGKRTGKEVDIEKLKLAKELVDVPVIVGSGTNYNNLRILWSYADGFIIGTWIKKDGKANNEIDIDRAKKIVNLANKLKM	not soluble
MRGSHHHHHHGSDLGKKLLEAARAGQDDEVRILIANGADVNAVDNTGLTPLHLAAVSGHLEIVEVLLKHGADVDAADVYGFTPLHLAAMTGHLEIVEVLLKYGADVNAFDMTGSTPLHLAADEGHLEIVEVLLKYGADVNAQDKFGKTAFDISIDNGNEDLAKSCRN	soluble
MGSDKIHHHHHHDEEPKSTLTDVAYYKTQSQMESNVNYLYRTGAIGSYVDFGSAYIGPFASIQEELTGYFSNSYEGQEIVCRYTRELTRQQNTMQLASKMDKVWDDCYRGINVANGAIKHMPEVPMDQATADRLTAEAKFFRAFNYFYLVKTFGAVPFYTDPYELAENMELPRTETSTIYNQIESDLKDAMNVLPEATFAANGHRITKYVAAMTLTDVYMYQHKYAEAAETVRIVVNSNHKLTTNDDLAMNSAFNKLRSTDDLDEAIYAYEYDNQISPSNWLPTYAFDGDASSNGLFGTYAITQKVHGPNDRYLNIYESNDLRRQPNQFYHWTYTNPKTGKVWNSVGNAACCWYYYDEDALLTTGRGTKDWNVYRYAEALLDAAESIAQSTGVTAEAAGYLAQVKARANMEGKTAAEIASSLQSMGKQAFIEECWTERLRELPLEFKMWDMCVRTGMFPNISETTPGQVTYIPLVGAKNASGATIKESDLLWPLSVNEIQRNPSLTQNEGYSAK	not soluble
MHFTPALKPGKLLKRYKRFLADVQLEDGSEITVHCPNTGSMRNCLFPGETLWFSTSSNTKRKYAHTWELMTTPTGALIGIHSGNANALVEEALNKGIITELTGYDSLRREVKYGDENSRIDILLECAQKTACYIEVKSCTLQENGQGYFPDAVSLRGQKHLRELMHMASLGHRAVLLFVVQHTDIMSVAPAAHIDPEYANLLKKSVLSGVEVLAYRCEISPSEIHLAQSCPVRV	soluble
MSLLPSQSPAIFTVSRLNQTVRLLLEHEMGQVWISGEISNFTQPASGHWYFTLKDDTAQVRCAMFRNSSRRVTFRPQHGQQVLVRANITLYEPRGDYQIIVESMQPAGEGLLQQKYEQLKAKLQAEGLFDQQYKKPLPSPAHCVGVITSKTGAALHDILHVLKRRDPSLPVIIYPAAVQGDDAPGQIVRAIELANQRNECDVLIVGRGGGSLEDLWSFNDERVARAIFTSRIPVVSAVGHETDVTIADFVADLRAPTPSAAAEVVSRNQQELLRQVQSTRQRLEMAMDYYLANRTRRFTQIHHRLQQQHPQLRLARQQTMLERLQKRMSFALENQLKRTGQQQQRLTQRLNQQNPQPKIHRAQTRIQQLEYRLAETLRAQLSATRERFGNAVTHLEAVSPLSTLARGYSVTTATDGNVLKKVKQVKAGEMLTTRLEDGWIESEVKNIQPVKKSRKKVHEGHHHHHH	not soluble
EYLDGFEAFTDQYKIKFQEFLDRFGIYYQPSTNKNAELFKVADSDIPSAEVKAYYVKEEWYFTPTNSDVDIKIQAICPIMTGQDEFGEVRNQPLFWIPYENIRPYIARERVMLSSLNNTRNSTIDDFFRLNLYKGDIVKTENLHNRALAEYCPTPDSMKMESKRIDKELQGFRDGLFVTQDTTWMKQAETKKSKGKKLEKARGKNITSRTRGQGEGAAETEAVEPKKQKASKNKAATRSVRRRK	not soluble
MAHHHHHHSLNDIVEVEIVDLTHEGAGVAKVDGLVFFVENALPSEKILMRVLKVNKKIGFGKVEKYLVQSPHRNQDLDLAYLRSGIADLGHLSYPEQLKFKTKQVKDSLYKIAGIADVEVAETLGMEHPVKYRNKAQVPVRRVNGVLETGFFRKNSHNLMPLEDFFIQDPVIDQVVVALRDLLRRFDLKPYDEKEQSGLIRNLVVRRGHYSGQIMVVLVTTRPKVFRVDQLIEQVIKQFPEIVSVMQNINDQNTNAIFGKEWRTLYGQDYITDQMLGNDFQIAGLAFYQVNTEMAEKLYQTAIDFAELKKDDVVIDAYSGIGTIGLSVAKHVKEVYGVELIPEAVENSKKNAQLNNISNAHYVCDTAENAMKNWLKDGIQPTVILVDPPRKGLTESFIKASAQTGADRIAYISCNVATMARDIKLYQELGYELKKVQPVDLFPQTHHVETVALLSKLDVDKHISVEIELDEMDLTSAESKATYAQIKEYVWNKFELKVSTLYIAQIKKKCGIELREHYNKSKKDKQIIPQCTPEKEEAIMDALRHFKMIEG	soluble
GSHMSQPRPLLSPPETEEQLLAQAQQLSGYTLGELAALVGLVTPENLKRDKGWIGVLLEIWLGASAGSKPEQDFAALGVELKTIPVDSLGRPLETTFVCVAPLTGNSGVTWETSHVRHKLKRVLWIPVEGERSIPLAQRRVGSPLLWSPNEEEDRQLREDWEELMDMIVLGQVERITARHGEYLQIRPKAANAKALTEAIGARGERILTLPRGFYLKKNFTSALLARHFLIQ	soluble
MHGSKLPLTVWFWAAYLMATHSNGISARQMGRHLGLGSYKSAWLLCAKLRGAMVNLARALLSGLVEIDETQISYRTKDNPVAGGGGRSPEGKMQVVVAVEVIDNAPGRLRLGVIDDASSASLHPFIKASVASGATLKTDGWSAYPGAPGYKHEPHVVGKMAAHIVLPWVHRVISNLKTWALGVYHGLRRQHLQSYLNEFVFRFNCRRTPHAAFRTLLGIGLAIQPVTYNMLIAPEAQGLEHHHHHH	not soluble
MGSDKIHHHHHHMAYFAEIFQIPFEESWGYVTNGGTEGNMFGCYLARELFPDSTLYYSKDTHYSVGKIAKLLQMKSCVIESLDNGEIDYDDLIHKIKTNKESHPIIFANIGTTMTGAIDDIEMIQERLAQIGIMRRDYYIHADAALSGMILPFVDHPQAFSFAHGIDSICVSGHKMIGSPIPCGIVVAKRQNVERISVDVDYISTRDQTISGSRNGHTVLLMWAAIRSQTNLQRRHRIQHCLKMAQYAVDRFQAVGIPAWRNPNSITVVFPCPSEHIWKKHYLATSGNMAHLITTAHHRDTRQIDSLIDDVIFDLQGASKRTVGF	not soluble
MASGRARCTRKLRNWVVEQVESGQFPGVCWDDTAKTMFRIPWKHAGKQDFREDQDAAFFKAWAIFKGKYKEGDTGGPAVWKTRLRCALNKSSEFKEVPERGRMDVAEPYKVYQLLPPGIVSGQPGTQKVPSKRQHSSVSSERKEEEDAMQNCTLSPSVLQDSLNNEEEGASGGAVHSDIGSSSSSSSPEPQEVTDTTEAPFQGDQRSLEFLLPPEPDYSLLLTFIYNGRVVGEAQVQSLDCRLVAEPSGSESSMEQVLFPKPGPLEPTQRLLSQLERGILVASNPRGLFVQRLCPIPISWNAPQAPPGPGPHLLPSNECVELFRTAYFCRDLVRYFQGLGPPPKFQVTLNFWEESHGSSHTPQNLITVKMEQAFARYLLEQTPEQQAAILSLV	soluble
MNKLVCSTFAILAIIAISQVQSAVLPVSSKEVALITSSASTTSSSETSIDTLGSSRVKRQGGCGCCGCGCGCCGCGGGGGGGCGCCCCRPKCCCCCRRCCTCCRTCCCTRCCTCCRPCCCGCGCGCGCCGCGGGGRKRRSLQNLRIALANKIEGIAKVVKGSAVEASVMNALAPVNDATVEEKKDVIN	not soluble
MGSDKIHHHHHHMEISFTRVALLAAALFFVGCDQKPQPAKTHATEVTVLEGKTMGTFWRASIPGIDAKRSAELKEKIQTQLDADDQLLSTYKKDSALMRFNDSQSLSPWPVSEAMADIVTTSLRIGAKTDGAMDITVGPLVNLWGFGPEQQPVQIPSQEQIDAMKAKTGLQHLTVINQSHQQYLQKDLPDLYVDLSTVGEGYAADHLARLMEQEGISRYLVSVGGALNSRGMNGEGLPWRVAIQKPTDKENAVQAVVDINGHGISTSGSYRNYYELDGKRLSHVIDPQTGRPIEHNLVSVTVIAPTALEADAWDTGLMVLGPEKAKEVVRREGLAVYMITKEGDSFKTWMSPQFKSFLVSEKN	not soluble
MSLGINGFTAHAQKLSLIYNTLDSRDMPTRGLYAKAAIEGSAEFLGSDASYRHYEAELKGYFPLKEARYITVARVAYNQTLGSDVPFLERSILGGESTLRGYGRNRFIDSSYFLCNLEERIRLFRWSVFDVNTDWEVAPFIDLGAVMESLDKTRSKNFEFNPGIGFRAVVRPNIVGRVDIGVGNDGPAVFVGLGYPFEGHHHHHH	not soluble
NSGQSGAESDIRRKSEEIAAHSNEPSAEKPKEEKKWYDRIGIRGYTQFRYSSTVSGDKDAVSYWPDKSVGEDGSFLIRRARLVIFGDINDHLSLYIQPDFASTPSGSSTGHFAQLRDAYADIHFDKNKEFRVRVGQSKIPYSFENLQSSQNRLALDRNDAMNSCCRDERDIGAFFYWAPTHIRDRFKEVMAKNLKGSGDYGMFAFGIYNGQGANRLEGNNGVHMVTRFTYPHQFSNGQILEAGIQALRGRFVPSTGPAGGFTPVMDAPEKGFKDERVGVHAVLYPQPFGLQAEWNWGRGPQLNDGQTMLTESSLNGGYVLATYKIDGLRWGTLFPFVKWQHFKGGQKFERNAPRNHVNDLEFGLEWQVMKEIELTAVYHMMNRTNVASAPYERYKADVLRFQLQWNY	not soluble
MGSDKIHHHHHHMSDLSQRIAELSPEKLKLLVQRLNNKQGEILLRSPIVPQSRELNSFPLSSAQQRLWFIDQLQPGNSAYNISVPMRLGGWLNVAALEQSFKEVVKRHEVLRTTFTVVDGQPLQVIASSLSFTLPVVDLQKLPQNQREAEVLRLASEEAQQPFDLAQGPLLRATLLQLAAAEYALLLTMHHIIADGWAIGVLIREIADLYKAFSVGKPSPLSELSIQYVDFAVWQQQWLQGQLETQLAYWQQQLGSIPVVELPSDFPRSTTQTFSGAREALVLPKTLCDRLKTLNQRQGITLFMVLLAAFGALLNWYTDREDIVVGTDIANRNQAETKALIGFFANQLVLRTNLSKNPTFLELLERVREMTLEAYAHQDLPFDKLVDALNPKRELNRTPLFQVKLVLENTQTPSLELPGLTISSLKIENKTVQFDLLLELNETEQGLFGIWEYSTDLFERDSIVRLSKNFATLLAEVATHPEAKLSELKAVLNQVDKQQHLAKEQVYQNTIQQKLMNVKRRANSRQSTSGNTNHDKN	not soluble
MGSDKIHHHHHHMGAARRLPSALFLLGCRTRTRGEHAHMGKIRTGIGGWTFEPWRGTFYPDDLKQKDELKYAASKLTSIEINGTYYSTFKPNSWMKWRDETPDDFVFSVKASRFCTNRRVLSENNDSLEKFLSQGLEELGPKLGPINWQFMATKKFDPADFEGFLKLLPSEQKGVRLRHAMEVRSPTFACQQFYDLCAQYGVAIVYAVDDEAPEWPRIDQPTADFTYARLMCSREDEPTGMTSEELDGVVAQTHKWAERGDVFAYFIAGAKVRNPAAAMALIGKLGG	not soluble
